Measurements taken from the supplement of paper PMC11196671.

How the values were obtained:
[1] = MHET released, HPLC; higher = more MHET released; extreme values may be limits of the assay; conditions: 24 h
Experimental: (§1)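 Purified PET hydrolases, 2.5 ug enzyme on 3.5 mg amorphous PET film (aFilm) or crystalline PET powder (cryPow) in 0.5 mL of 50 mM buffer (NaCitrate pH 4.5/5.5, NaPhosphate 6.5/7.5, glycine 8.5/9.5) at 60 or 70 C with shaking for 24 h. Total aromatic product by UV-Vis (260/280 nm, blank-subtracted, normalised per mg enzyme) and individual TPA, MHET, BHET concentrations by UHPLC-DAD at 240 nm; duplicate reactions.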

[2] = BHET released, HPLC; higher = more BHET released; extreme values may be limits of the assay; conditions: 24 h
Experimental: as §1

[3] = PET hydrolysis product formed (TPA+MHET+BHET, UV-Vis) per mg enzyme (mmol/mg enzyme); higher = more PET depolymerisation activity; extreme values may be limits of the assay; conditions: 24 h
Experimental: as §1

[4] = as above; conditions: 2 h
Experimental: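 Purified PET hydrolases (His-SUMO cleaved, E. coli C41(DE3) small-scale expression), 2.5 ug enzyme on 3.5 mg amorphous PET film (aFilm) or crystalline PET powder (cryPow) in 0.5 mL of 50 mM buffer (NaCitrate pH 4.5/5.5, NaPhosphate 6.5/7.5, glycine 8.5/9.5) at 60 or 70 C with shaking for 2 h. Soluble aromatic products (TPA+MHET+BHET) were quantified by UV-Vis at 260/280 nm, blank-subtracted against the no-enzyme control, and normalised per mg enzyme; duplicate reactions.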

ADNPYQRGPDPTNASIEAATGPFAVGTQPIVGASGFGGGQIYYPTDTSQTYGAVVIVPGFISVWAQLAWLGPRLASQGFVVIGIETSTITDLPDPRGDQALAALDWATTRSPVRSRIDRTRLAAAGWSMGGGGLRRAACQRPSLKAIVGMAPWNTEKNWSCVTVPTLFFGGSSDAVASPNDHAKPFYNSITRAEKDYIELCNADHFFPTSANTTMAKYFISWLKRWVDNDTRYTQFLCPGPSTGLFAPVCASMNTCPF [CaPETaseM9]
Conditions	BHET released, [2] [mM]	MHET released, [1] [mM]	PET hydrolysis product formed, [3]	PET hydrolysis product formed, [4]
PET substrate: aFilm, 60 °C, pH 4.5	0	0.00378	0	0
PET substrate: aFilm, 60 °C, pH 5.5	0	0.0574	0.0213	0
PET substrate: aFilm, 60 °C, pH 6.5	0	0.106	0.0426	0.00371
PET substrate: aFilm, 60 °C, pH 7.5	0	0.299	0.132	0.0032
PET substrate: aFilm, 60 °C, pH 8.5	0	0.108	0.0575	0.0152
PET substrate: aFilm, 60 °C, pH 9.5	0	0.123	0.102	0
PET substrate: aFilm, 70 °C, pH 4.5	0	0	0	0
PET substrate: aFilm, 70 °C, pH 5.5	0	0	0	0
PET substrate: aFilm, 70 °C, pH 6.5	0	0	0	0
PET substrate: aFilm, 70 °C, pH 7.5	0	0	0	0
PET substrate: aFilm, 70 °C, pH 8.5	0	0.00345	0	0
PET substrate: aFilm, 70 °C, pH 9.5	0	0	0	0
PET substrate: cryPow, 60 °C, pH 4.5	0.00607	0.03643	0.016	0.0116
PET substrate: cryPow, 60 °C, pH 5.5	0	0.0852	0.0317	0.0306
PET substrate: cryPow, 60 °C, pH 6.5	0.00315	0.103	0.0476	0.0384
PET substrate: cryPow, 60 °C, pH 7.5	0	0.183	0.0789	0.0693
PET substrate: cryPow, 60 °C, pH 8.5	0	0.0922	0.0427	0.0382
PET substrate: cryPow, 60 °C, pH 9.5	0	0.0663	0.0717	0.0436
PET substrate: cryPow, 70 °C, pH 4.5	0	0	0	0
PET substrate: cryPow, 70 °C, pH 5.5	0	0.0148	0.00351	0.00828
PET substrate: cryPow, 70 °C, pH 6.5	0	0.0346	0.0154	0.0134
PET substrate: cryPow, 70 °C, pH 7.5	0	0.0406	0.0196	0.0293
PET substrate: cryPow, 70 °C, pH 8.5	0	0.0381	0.0178	0.0155
PET substrate: cryPow, 70 °C, pH 9.5	0	0	0.0148	0.0183
